# Test results from the domain aggregation screens of Martell et al. (2025).
# Assay: soluble fraction after stress (log2 fold change); higher = more stays soluble; pooled small domains, quantitative proteomics
# Settings: stress: 50 degC
# Procedure, shortened: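 Custom libraries of small protein domains were pooled and measured in a high-throughput format, with quantitative proteomics as the read-out. Each library was stressed at 50°C. The value is the log2 fold change in the amount of each protein that stays soluble after stress, used as a measure of aggregation propensity; higher values mean more of the protein stays soluble.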
row,Sequence,soluble fraction (log2)
1,HMTTETGTVKWFNEGKGFGFIAPDGGGKDLFAHFKEIQGSGFKTLTENQRVQFEVTQGQKGPQASNIRTL,0.243
2,HMHSFFGDNIKKLRTAKKMSQEQLADIFGITKAGISYWETGRSEPNFATVQKLADFFGVTTSDLLGEA,-0.194
3,HMNMENIADKIGKIYESLPEDLKLMIKYRDIDDLTYDEIAVKADLPVGTVRSRLHRAREQLLKELEKN,-0.143
4,HMGMNKEHFIIELKIYLKALNPKDQAIILAKYKALFDARVAEGETEEQVAKSLGKPRVIAEEILKEQGIE,-0.236
5,HMEDLGYVKVASQTAAIRKSAAVQAGQIGTVHEGETYRYLGEEEGWYLVEYNGQKAYISWDDGEL,-0.119
6,HMKAEKEIEKIKFTIYNEFKRKQEENHFLPPWDGTKMLRQFVLGVVANNPKYQHVNTDILYRDLLLLYYQ,-0.968
7,HMQEDQKTSIFDIEGVEKGVASVLSSIKVEIVSDLLEADMDDILKSGKISEDDLDGVYEAVQNFVER,0.42
8,HMRLNIRTKNNYSYYTIIKDYTNLNGKRTTTIFEKLGNQQQVEERFGKVNTIENIKKYIEELNNE,-1.23
9,HMDSVEMFSPILGMNANMDLDTLTQTRDKLLEKYKDDEQLIGLVNKTYDYFNEILLKQFLIEELEKNE,-0.153
10,HMAHESYVKEQLLLSLTNHEDPIMQISLIEQLTKMHERNIIHELEKLTVDVQTNEEVKVQAYASLLILS,-0.53
11,HMLYEDVQVPNVRYWKSRDAKKQLEDLGLRVLTEHVNDAYIQSDQVIRTSPEIGDTLRTGDTVTLYVSDG,0.185
12,HMKFTELEQLMLKREINTLADIARVLKTTPQAVSNWKARDQIPYHIVAKINASINKDSNDSSLSI,0.00789
13,HMGTSFEDIDRAVKSVRKPETDEAEKLHAGKTFKDIAETELFQKLTESFAGISDRVNEVIDLYTARAAE,0.143
14,HMEISPGDVFKQLPGIGDDLSRRVVESLGIQSLEELESAAHDGRLEQVEGFGERRVQMVRAVLTGMLS,-0.0423
15,HMKKEQVIVPNVVGDTYDVALRKLTDAKLKVGETFPADREGHQGVIEKQSPAAGETVDEDTPVALFFKV,0.0344
16,HMGTGELLVHVIGAVHSPGVVRLPTGARVVDAIDAAGGAREDAQTEQLNLARLVDDGEQVRVPVVGESVD,-0.0181
17,HMLSVLKNVDVNSLSDDKIKTYWQQIQKSGYTLDEVEVLAEAQGISPLKIAAFKRRVQSLQQSLQT,0.199
18,HMTGQEGLIGAHGVALTRLSNEEGEVKVQGEIWQARSDQEVAKGASIEVVHVDGLVLTVRPQH,-0.0984
19,HMHWDIAQADAKQEVMDSSDDKEAIERIQANMFKDPKDHDQEYANKILNDMIDEIKEKGLEAMQHKFAQE,-0.379
20,HMRDANYFINPIHEWQKRYEALRASFVDRLPAQAVAQRFGYTITYIHLLRHQFKSGKIDFSEPVPEG,-4.61
21,HMTAVPADVETVTGFTALDRAGLDTLLARLGLAMDLEDLSFLQAYFRDTERRDPTLTEIRVVDTYWSDH,-1.38
22,HMDVNHVIIDHKGNSIQAIIDSIDLDNVYYQSKIKKESEVIDIDKVYFIFNDFDRVYHYDWSYYENL,-0.138
23,HMQTKMVYSDLVNSIKSEQVSSMLVSGNTVTVTLTNGDKAKVKIPSLDTLQADVGKEMNDQMDKGTLKQE,0.181
24,HMSVPRPSAVEVTSLVTGVRDLLPHLGEGYVERVLVEFGFKVDETINALLEGNLPKHLQDLDPSLTKEI,-0.662
25,HMESVTETFLTNLINRYIADKAGYIISYPSEYRIEVLYHGGQVLDYENLRKSINTYIPAHIGYKLVTI,-0.112

row,Sequence,soluble fraction (log2)
1,HMDNNFIQSLYPIAIGISKNQLDPWDLINGWVEYYLKNKEKYINHPNLKAVAVLKMKGLLIDHFRKS,-3.57
2,HMLGERIRTLRKEIGMSVTELARRVKTSPSHISEIERGEKMPSLNLLVKIAKELKTSIDYLTGLVG,-0.0679
3,HMEELPVLHLKHVVVEGESLWKLAEQYLNDGTRWQEIYMLNRENISNPDLIREGQELNIQFLQGE,-0.574
4,HMGPEISEDAKVVFDRLKNHDEILLNNFKSEFDLSNKKWDKIIKELRGNDLISIIKSEDGNLFIKP,-0.00901
5,HMTVLIDEQSSDGLLKITVTANTAVKSITIADELLEDKEQLEDYLILVLNKAIARANQVNQTELDAVAK,0.317
6,HMSNYPYLLRTYEGKLAVFTDDLVQPDLVFDVYVRTLPELDQQQLSRGIRVKTYDELTSMIEDYI,-1.13
7,HMDIFFEKIFNILIGYNQNQENLISEKSILNFHLSHKSNSNFEYIPDEKTPKYIWKYLSNYNLLE,-0.359
8,HMQISSSEVLEKVVDEILSANPKSIEDYKNGKLQAAGFLMGQVMKATKGQANPAVAKELIEAKLKD,0.419
9,HMLEIRGFTVLLSDRGIVGIIEEIIQNPGQDLLRILSPEKREILVPLHSDLITGINKKKKTITMNLPDGL,-0.465
10,HMKHTVSVDRLQPGVFVSLGGLSWLDHPFLLNRFRLTDHDQIKVLRSLGVKEIEWDPTRSTAQPLPE,-0.437
11,HMLRQRVFRIIQNNINSKNYFVYTKQILAELAGISMRSLNRTLSELQNDRLIIVDSGTIRLFT,-1.49
12,HMDENMQRYNTMEEIKKEFPYAEDTVRKLIAMGAIRGGGKVDANGDPADMDLSRDMLRMMVFNDRAGAYG,0.544
13,HMLTIEEYLTQLKKLMKDRDAATVRDALSDAEEHLRNAMAGEDPSRLDGIIEEYGSPEEIAAAYKIMEEHT,0.0389
14,HMPEVYPFEVAEDDAGKRLDVFLSEEIEEFTRSFIQKLIAGGLASVNRAPARASYRVKPRDLVELQVPE,-0.448
15,HMAVQAESDIIKRAALLRNLGNTSMQLKNIDQAIDFYKQGIKLHPEDAELKYNLSQALRQKSQSNN,0.0399
16,HMDSPVLTAEIKALIDKELEQNAVKLATGLKKQRKRATDIHDALIRQGHEVSYRTVVRYIRNKTAQTS,-0.061
17,HMKDMKISTKNLLQELAKNYPDQTSFRKNVIETTARAMGYTGKDFYPLLTTDNRVKIGTYDLATFLRSI,-0.718
18,HMNEKAALIFNEWSDFVSKDDEANAQIKFDELITLYKKTGYTKIALLEVATKQASNGDIEGALAKYSLLID,0.208
19,HMHDAKTQLQEEAARRGLPAPVYTRIGQEGPDHAPRFRVRADVGPHQAEAVAGSLKLAQAEAARAILRQMP,0.228
20,HMANLAQITKTNAVALALKDVGAYNSEDLMKFIDLDKVVLGEDGKPQLEDTINSLKESSPYLFQ,0.0767
21,HMRIPANIAEDIKKLQKKEHHLHHHLGRDPFDDELAKELEWDTEQVSEIRQMIKNPELLEELLEAEREEE,0.172
22,HMQWLDSIRSRLRVGQTISYFEPRENASSSGLIIELRRKRVLVLEIATQKRWLIEYAAINVDG,-0.373
23,HMNADTVIGKAGTVIEKIDNVAATGAVKIDGKVWTARSERDNITIDEGTLVKAMAIEGVKLIVEPVT,0.198
24,HMTKGVWHTVKKGENLYRISLYYEVPQQEIKKANKIETENIVVGQKLFIPNTTKKSPIFALTP,-1.49
25,HMRGLLSQREHDVLDLVARGFSYGEIARLRSISVSTVQTHIKNLYRKLAVSSRTEAVYEAKQMGI,-1.59

row,Sequence,soluble fraction (log2)
1,HMLKPQQTQRIYAMAARLGVLESGNKNDMLHTIVYRLTQKESIRSLNENEYKTVVSELAERLKL,-0.97
2,HMEALGLSPRQVDVLRLLVEGRSNKMIMRELELSESTVKTHLQAIFRRLGVSSRTQAVVAAARLGL,-1.25
3,HMKSLLSRREQEVLELVSRGFSYSEIAELKNLSVHTIQTHIKSLYGKLEVHSKMEAVLEATRMGLLPQ,-1.8
4,HMQQIQILPDGKIKLPDLSGTNMREAIEILHKGGLRMKPYGSGNAYQQKPAAGETVASGTTVEVLSL,0.0457
5,HMSREQARRFYFDTWAKHRASQPLTDLEKIALTVMLLHPEYHSLLDKPDHYVDKDYSPEAGQTNPFLHM,-1.2
6,HMEAFDYLGRRTRDLLERQGWTTVPLVRDAYLAVPGGERLLQVPGFGRKSLREVRRWLWLQIGDPRFE,-1.36
7,HMEKFTGELSQEEKNVLDALSHEEMHVDIIIKLTKLETSAVSSTLSLLEIKGLIKNIGGQNYIK,0.486
8,HMFVGVDMAVKEEIGKEGVAFTDLRPAGKVSIGDDVYDAVSETGAFITRGTSVRVLKYQAGQVYVVK,-0.154
9,HMWQKGEPAITGLKRISKPGLRIYSKNDELPIVYGNRGIAVISTNKGVMTGIEAKRSGVGGEVLFYV,-0.045
10,HMGSQLYTLEVEADEKISLIENNPLLIQKIYLKDNNLFSYKIASSSKTEIASIEKELEKNPSIKRLETA,-0.181
11,HMPVNGEFIERIKVMVLENKAKGKKERLTKTRMHQLLQEEGYKGSYSAFTHQVRIIEEELGVNQKEAH,-0.0836
12,HMLQPQMKKFLNYESARNKMRPFGLSTRKEWRLFVDEGNRPADIPGDPYKKYKNKGWISWPHFLGK,-1.58
13,HMTELVIPDYFSKALAKNKKAKQVFEAFAYSHRKEYLQWITEAKTEETRNKRMATAIEWIAEGKGRNWKYA,-1.69
14,HMGDWEKALAQFAAHRLANGSTAFLDEMYPIFERILLQAALNKTGGRKIEAAELLGWGRNTLTRKLKELGF,-2.2
15,HMNLDELGNRIREQRIKQRLKQQDIANALMLSAQAVSKWERGENAPDISVLPDLVKILGVSVDWLLTGP,-0.734
16,HMVNPDAPAPLYIVNGKETDKNIALAIKPEDVQDVRIIKNTVALQVYGEKGKNGVVIINTKPGV,0.206
17,HMFEYDEEEYEKLGPNADLTIKSMTDWGQSLVRKGVWSESDFEEFKIMGGTAQGLRALQKVRSYY,-0.451
18,HMRAEPNSNYSLAIIYKNRYDIAVKKKDAVKEVEYGKMVYEYLNKYVVLSGNKSAKYKKILNYFSSY,-3.04
19,HMLSYFKIIKNGLVREGPASYYKIAENLEIGTIVQAFEKHDDWYLIKTHSGRIGWIVASDVTPQV,-0.245
20,HMGRLEVDLVVPYDKYEAMNVIRAEGRILKEDHQGDGAHLKIQINETALWKLKRMLGEGYGQ,-0.157
21,HMLAYQRTYEKILEDLRNDVYPVNSLLPPEPKLEEIYHVSRTTVRRAIAQLADEGYVKVKQGYGTVVLKN,-0.339
22,HMSFVDFYGLFTTELQRLAELPVTADELIKNTGLHKSQLTDWLKRAEEDGVVKKLNRPVRYQVEKK,-0.987
23,HMAGGNHPTRLELLDSAAHIAERDGTSALTVDAITKSAGHAKGTFYIHFDDRADLLVEMHRR,-0.183
24,HMAPLVTLEADGNGAVKLSNLAGHSIREVAGALGGAGLSLIPVGSGTSWKQNPAPGTVLHSGDTVTVYF,0.126
25,HMRQTGWVTADSLNVRARPSLQAERVEKVTYGQQVQIMFKQGQWYQIATENGKIGWVSSEYIAAVSP,-0.0654
